Target: CCR5, P51681
Assay: competitive radioligand binding on whole CHO-CCR5 cells at 4 C, 12 pM [125I]MIP-1α tracer
Conditions: remark: other sources report otherwise

Chain of CCR5, P51681 (P51681 whole entry): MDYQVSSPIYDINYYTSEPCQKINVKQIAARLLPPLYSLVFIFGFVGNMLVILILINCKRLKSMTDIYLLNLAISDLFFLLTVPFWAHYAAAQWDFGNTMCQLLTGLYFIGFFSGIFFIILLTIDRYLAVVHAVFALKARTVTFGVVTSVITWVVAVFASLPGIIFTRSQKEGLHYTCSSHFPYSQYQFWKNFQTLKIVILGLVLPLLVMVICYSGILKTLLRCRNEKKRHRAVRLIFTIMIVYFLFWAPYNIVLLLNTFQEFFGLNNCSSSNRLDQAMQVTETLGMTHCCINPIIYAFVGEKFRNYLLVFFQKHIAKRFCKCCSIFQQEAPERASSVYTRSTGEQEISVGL

IC50: 1.7 nM
B1: RANTES, P13501 24-91 (ligand, human, UniProt P13501 24-91, looked up)
chain: SPYSSDTTPCCFAYIARPLPRAHIKEYFYTSGKCSNPAVVFVTRKNRQVCANPEKKWVREYINSLEMS

— US20040258659A1
